Source: the supplement of paper PMC7125110
± gives the standard error. Variants at the floor of the assay were thinned out.

B1: glmS ribozyme (parent)
chain: AUAAAAGCGCCAGAACUACAGAAAUGUAGUUGACGAGGAGGAGGUUUAUCGAAUUUUCGGCGGAUGCCUCCAAA

Variants of: B1
Assay: self-cleavage kobs at 10000 uM GlcN6P; higher = faster cleavage; RNA array
Conditions: with glucosamine-6-phosphate
Method in brief: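 Tiles bearing barcoded ribozyme variants, transcribed in situ by E. coli RNA polymerase on sequenced MiSeq chips, were imaged over ~14 h at 37 °C using a hybridised Cy3 probe. Glucosamine-6-phosphate was supplied at 40 μM to 10 mM in HEPES/KCl/Mg(OAc)2 buffer. kobs came from one- or two-exponential decay fits to normalised per-tile medians, and weighted Michaelis–Menten fits then provided kcat and KM.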

First: A15U G40U U54A
Second: A12C A39U A48C
The “self-cleavage kobs at 10000 uM GlcN6P” value of the first is 1.8-fold higher: 7.33e-05 ± 1.6e-05 s⁻¹ for the first, 4.14e-05 ± 1e-05 s⁻¹ for the second.

First: A14U U30G U31C
Second: G13U A15U G62A C68A C70G
The “self-cleavage kobs at 10000 uM GlcN6P” value of the first is higher: 0.000695 ± 0.00016 s⁻¹ for the first, under 1e-05 s⁻¹ for the second.

Going from A15C A42G U47G A53G to G29U U54A C71U, the “self-cleavage kobs at 10000 uM GlcN6P” value rises from 0.000696 ± 9.1e-05 s⁻¹ to 0.00223 ± 0.00064 s⁻¹ (3.2-fold).

First: A33G G37C C50G C68A
Second: U31C C67G C70A
The “self-cleavage kobs at 10000 uM GlcN6P” value of the first is higher: 0.00162 ± 0.00046 s⁻¹ for the first, under 1e-05 s⁻¹ for the second.

Going from C16A U31A C71G to G37U C58G, the “self-cleavage kobs at 10000 uM GlcN6P” value falls from 4.01e-05 ± 1.1e-05 s⁻¹ to under 1e-05 s⁻¹.

U30A G38C and A36C G38U A39C G62U cannot be ordered by “self-cleavage kobs at 10000 uM GlcN6P” value: under 1e-05 s⁻¹ for the first, under 1e-05 s⁻¹ for the second.

Compared with G32U A53G U65A, U30G A39C U56A C70G is lower in “self-cleavage kobs at 10000 uM GlcN6P” value: 5.88e-05 ± 1.9e-05 s⁻¹ for the first, under 1e-05 s⁻¹ for the second.

Compared with G38C C50A, A14C U55A C71U is higher in “self-cleavage kobs at 10000 uM GlcN6P” value: under 1e-05 s⁻¹ for the first, 0.00514 ± 0.0013 s⁻¹ for the second.

A15U G38U U57C C61U and G13C A42G U65C cannot be ordered by “self-cleavage kobs at 10000 uM GlcN6P” value: under 1e-05 s⁻¹ for the first, under 1e-05 s⁻¹ for the second.

Compared with A12U G43U U46A, A14U A52C U57A C71U is lower in “self-cleavage kobs at 10000 uM GlcN6P” value: 4.1e-05 ± 1.8e-05 s⁻¹ for the first, under 1e-05 s⁻¹ for the second.

A33G A42C U47C G60A and A36C U56C cannot be ordered by “self-cleavage kobs at 10000 uM GlcN6P” value: under 1e-05 s⁻¹ for the first, under 1e-05 s⁻¹ for the second.

Compared with U30C A36U G44U C67G, G13A A42G is higher in “self-cleavage kobs at 10000 uM GlcN6P” value: under 1e-05 s⁻¹ for the first, 0.000882 ± 0.00023 s⁻¹ for the second.

First: C11G G13U C61G
Second: G29C A64G C70U
The “self-cleavage kobs at 10000 uM GlcN6P” value of the first is lower: under 1e-05 s⁻¹ for the first, 3.15e-05 ± 1.4e-05 s⁻¹ for the second.

A14G C34G G44U A52C C58A G59A G63U C71G and C16U C34U G44A cannot be ordered by “self-cleavage kobs at 10000 uM GlcN6P” value: under 1e-05 s⁻¹ for the first, under 1e-05 s⁻¹ for the second.

Compared with A15U A39G U57C, C19A G43C U47G is lower in “self-cleavage kobs at 10000 uM GlcN6P” value: 6.65e-05 ± 1.8e-05 s⁻¹ for the first, under 1e-05 s⁻¹ for the second.

Compared with A36U A42U C61U, G32A U69G C71A is higher in “self-cleavage kobs at 10000 uM GlcN6P” value: under 1e-05 s⁻¹ for the first, 4.49e-05 ± 1.6e-05 s⁻¹ for the second.

Going from A14U A53U C68G to G13C A36G G51A U55A, the “self-cleavage kobs at 10000 uM GlcN6P” value falls from 5.14e-05 ± 1.1e-05 s⁻¹ to under 1e-05 s⁻¹.

Compared with G13A G38U, C11A U69G C71G is higher in “self-cleavage kobs at 10000 uM GlcN6P” value: under 1e-05 s⁻¹ for the first, 4.63e-05 ± 1.5e-05 s⁻¹ for the second.

First: U31C G40U G66A
Second: C16A U30C A53C C70G
The “self-cleavage kobs at 10000 uM GlcN6P” value of the first is higher: 0.00025 ± 7.4e-05 s⁻¹ for the first, under 1e-05 s⁻¹ for the second.

First: A12G A14C A15G
Second: A12C G32A G38A
The “self-cleavage kobs at 10000 uM GlcN6P” value of the first is higher: 0.000141 ± 3e-05 s⁻¹ for the first, under 1e-05 s⁻¹ for the second.

A33G A48C and G32U G43U U69C cannot be ordered by “self-cleavage kobs at 10000 uM GlcN6P” value: under 1e-05 s⁻¹ for the first, under 1e-05 s⁻¹ for the second.

Going from G32U U55A C58G to A36G G37C A42C A48C U65G, the “self-cleavage kobs at 10000 uM GlcN6P” value falls from 0.000755 ± 0.00011 s⁻¹ to under 1e-05 s⁻¹.

First: G32C G38U A42C G43C A52C
Second: A12G U46A C71G
The “self-cleavage kobs at 10000 uM GlcN6P” value of the first is lower: under 1e-05 s⁻¹ for the first, 3.42e-05 ± 1.3e-05 s⁻¹ for the second.

Compared with A14U A42U U57C, G32U U57A is higher in “self-cleavage kobs at 10000 uM GlcN6P” value: under 1e-05 s⁻¹ for the first, 6.86e-05 ± 8.1e-06 s⁻¹ for the second.

Compared with A33G C50U C58G C71U, C11U G60A C68G is higher in “self-cleavage kobs at 10000 uM GlcN6P” value: under 1e-05 s⁻¹ for the first, 5.38e-05 ± 1.9e-05 s⁻¹ for the second.

C11G G29A G41U C50G U56G C67U and G13U G44U U45G C58A C71G cannot be ordered by “self-cleavage kobs at 10000 uM GlcN6P” value: under 1e-05 s⁻¹ for the first, under 1e-05 s⁻¹ for the second.

Compared with C11U A48G C50U C71U, A33U U45A U46G is higher in “self-cleavage kobs at 10000 uM GlcN6P” value: under 1e-05 s⁻¹ for the first, 0.000433 ± 5.7e-05 s⁻¹ for the second.

Going from C16A G29U U45G to C11U C34G G51A A52U C68G, the “self-cleavage kobs at 10000 uM GlcN6P” value falls from 0.0036 ± 0.00061 s⁻¹ to 0.000563 ± 0.00022 s⁻¹ (6.4-fold).

A14G G37C U45A U49C G59U and U30A G37C C50U cannot be ordered by “self-cleavage kobs at 10000 uM GlcN6P” value: under 1e-05 s⁻¹ for the first, under 1e-05 s⁻¹ for the second.

A14C U30G A33G G37A C68G and G35C A48U C70G cannot be ordered by “self-cleavage kobs at 10000 uM GlcN6P” value: under 1e-05 s⁻¹ for the first, under 1e-05 s⁻¹ for the second.

Going from A14G U31G C67U to G38A G51A, the “self-cleavage kobs at 10000 uM GlcN6P” value falls from 0.00162 ± 0.00041 s⁻¹ to under 1e-05 s⁻¹.

Going from G37A U54A G66U to A12U U46G A48G, the “self-cleavage kobs at 10000 uM GlcN6P” value falls from 0.000359 ± 8.7e-05 s⁻¹ to 9.42e-05 ± 2.1e-05 s⁻¹ (3.8-fold).

A14U A42G U47C and A12C A52U C67G are within error of each other in “self-cleavage kobs at 10000 uM GlcN6P” value: 0.000229 ± 8.1e-05 s⁻¹ for the first, 0.000146 ± 3.5e-05 s⁻¹ for the second.

Compared with A12G U30G C58A, A39C G59A C68A is lower in “self-cleavage kobs at 10000 uM GlcN6P” value: 0.000483 ± 9.8e-05 s⁻¹ for the first, under 1e-05 s⁻¹ for the second.

G13C C67U C68G and A36U A52U U65G U69C cannot be ordered by “self-cleavage kobs at 10000 uM GlcN6P” value: under 1e-05 s⁻¹ for the first, under 1e-05 s⁻¹ for the second.

Going from A39G G43U G44U C67G to U30A A33G C61G C70A, the “self-cleavage kobs at 10000 uM GlcN6P” value falls from 5.34e-05 ± 1.9e-05 s⁻¹ to under 1e-05 s⁻¹.

G38C U49A G51U C71U and U30A G32A G41C G51C C61A C71U cannot be ordered by “self-cleavage kobs at 10000 uM GlcN6P” value: under 1e-05 s⁻¹ for the first, under 1e-05 s⁻¹ for the second.

Going from A14U U46G A53G to G38C U45C U49A A53U, the “self-cleavage kobs at 10000 uM GlcN6P” value falls from 0.000633 ± 9.6e-05 s⁻¹ to under 1e-05 s⁻¹.

Going from C16G U46G C67U to A15U C58U G59U, the “self-cleavage kobs at 10000 uM GlcN6P” value falls from 0.000334 ± 6.9e-05 s⁻¹ to under 1e-05 s⁻¹.

A12C A42C G59C and A33C A52G U54A cannot be ordered by “self-cleavage kobs at 10000 uM GlcN6P” value: under 1e-05 s⁻¹ for the first, under 1e-05 s⁻¹ for the second.

G29U G60A C61A and A33U G40C U56A G60C C71U cannot be ordered by “self-cleavage kobs at 10000 uM GlcN6P” value: under 1e-05 s⁻¹ for the first, under 1e-05 s⁻¹ for the second.

In the case of G37U G44U G60U, the “self-cleavage kobs at 10000 uM GlcN6P” value is reported as under 1e-05 s⁻¹.
